Data on one substance can be found in paper PMC2945256.

The assay addresses Elongation Factor 1 alpha (EF1α), endogenous in rat liver lysosomes (rat (endogenous in rat liver)) (UniProt P62630). The assay can be described thus: co-IP.
Sequence of UniProt P62630 (P62630 whole entry): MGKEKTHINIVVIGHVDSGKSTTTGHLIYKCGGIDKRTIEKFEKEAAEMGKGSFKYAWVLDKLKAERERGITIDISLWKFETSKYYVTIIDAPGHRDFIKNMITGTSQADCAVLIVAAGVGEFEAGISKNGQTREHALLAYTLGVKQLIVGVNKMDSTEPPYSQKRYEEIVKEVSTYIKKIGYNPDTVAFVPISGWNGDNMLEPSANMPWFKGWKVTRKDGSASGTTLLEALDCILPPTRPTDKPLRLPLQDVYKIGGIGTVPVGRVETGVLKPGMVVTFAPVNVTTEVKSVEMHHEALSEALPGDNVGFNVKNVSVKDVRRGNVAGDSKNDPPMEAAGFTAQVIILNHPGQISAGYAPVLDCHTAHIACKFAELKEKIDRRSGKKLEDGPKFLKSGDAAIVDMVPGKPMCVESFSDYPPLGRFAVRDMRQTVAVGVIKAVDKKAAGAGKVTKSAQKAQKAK

As for “glial fibrillary acidic protein (GFAP), endogenous in rat liver lysosomes (from UniProt P47819 1-430) (natural protein)”, the decrease of GFAP co-immunoprecipitated with EF1α upon addition of GTP turned out to be 47.2%.
